Test results from patent publication US20210205365A1, “Chimeric Growth Factor Receptors” (Instil Bio (UK) Ltd., priority 2018, published 2021).

Assays:
circulating platelets = details: 73 healthy volunteers, higher doses; cited from earlier work
primary human T-cells [1] = test: Eltrombopag and IL-2 on CrGFR transduced primary human T-cells, up to 21 days; assay type: cell-based; details: after 21 days, x3 donors, Eltrombopag
Protocol: (§1) FIGS. 6A-6B—Analysis of Eltrombopag and IL-2 on primary human T-cells from Donor 1. Primary human T-cells from donor 1 were transduced with the WT TpoR or variant CrGFR and incubated in the presence of IL2 or Eltrombopag. Cells were removed at time points up to 21 days and the proportion of cells expressing the receptor assessed using PE conjugated anti-CD110 antibodies and a MACSQuant analyser.
as §1, with “FIGS. 7A-7B—Analysis” for “FIGS. 6A-6B—Analysis”, “Donor 2.” for “Donor 1.”, “donor 2” for “donor 1”
as §1, with “FIGS. 8A-8B—Analysis” for “FIGS. 6A-6B—Analysis”, “Donor 3.” for “Donor 1.”, “donor 3” for “donor 1”
FIGS. 9A-9B—Selection of optimal CrGFRs for next round of analysis. Flow cytometry plots showing expression of CrGFRs in ×3 donor primary human T-cells after 21 days incubation in Eltrombopag. The receptors TpoR.CD40, TpoR.IL2rγ, TpoR.ITAM1, TpoR.A60, TpoR.LMP1-cyto and TpoR.TpoR-cyto.LMP1-cyto were chosen for future comparison with the wt TpoR.
Peripheral blood mononuclear cells were isolated from normal healthy donors before activation for 24 hours with T-cell activation and expansion beads (Invitrogen) according to the manufacturer's instructions before addition of lentiviral supernatants.
Following expansion cells were washed excessively to remove any exogenous IL2 and plated into 96-well U-bottom plates. Cells were supplemented with IL2 (Proleukin) or Eltrombopag (Stratech Scientific, Suffolk, UK). At various time points thereafter cells were either stained with a 1:400 dilution of eFlor-450 fixable viability dye (eBioscience, UK) and counted directly from the wells using a MACSQuant Cytometer, or were stained with DRAQ7 viability dye plus phycoerythrin conjugated anti-CD110 antibodies (Miltenyi Biotec, UK) and analysed using a MACSQuant cytomter. Cell viability and/or transduction level was then analysed using MACSQuantify software (Miltenyi Biotec, UK).
Next Applicants took these receptors and expressed them in primary human T-cells and exposed these cells to IL-2 or Eltrombopag. Three donor primary human T-cell populations were isolated from buffy coats and transduced with the indicated lentiviral constructs in the presence of CD3/CD28 Dynabeads. Following expansion the cells were incubated with IL-2 or Eltrombopag. Applicants saw an increase in expansion/survival of T-cells with some of the receptors in some of the donors. […] This narrowed Applicants' panel of receptors to analyse further to: TpoR.CD40, TpOR.IL2rγ, TpoR.ITAM1, TpOR.LMP1-cyt, and TpoR.TpoR-cyt-LMP1-cyt.

[2] = system: Tumour Infiltrating Lymphocytes from TIL042; test: CrGFR in TIL042 mixed with patient matched tumour cells; assay type: cell-based, human
Protocol: (§2) FIG. 13—Analysis of Chimeric recombinant Growth Factor Receptors in TIL042. Tumour Infiltrating Lymphocytes from TIL042 were transduced with the WT TpoR or indicated variant CrGFR and incubated in the presence of patient matched tumour lines with the addition of IL2, Eltrombopag, IL-2+Eltrombopag, or no growth factors. Cells were analysed and counted at days 4 and 7 and the number of cells expressing the receptor assessed using PE conjugated anti-CD110 antibodies, DRAQ7 viability dye and a MACSQuant analyser. Graphs show counts between days 4 and 7 when recovery of TIL occurs after an initial contraction in numbers driven by tumour regulatory factors and/or activation induced cell death.
Applicants next assessed the ability of these receptors to promote survival/expansion in a model of adoptive cell therapy by engineering tumour infiltrating lymphocytes. TIL from patient TIL042 (Uveal melanoma) were engineered with the variant or wt CrGFR and mixed with patient matched tumour cells (CTUM42.1). On days 4 and 7 counts were made of the total cells as well as the CD110+ cells. Applicants found an initial decline in cell numbers, probably driven by AICD or intrinsic inhibitory factors. However between days 4 and 7 Applicants observed an increase in the numbers of CD110+ cells with all the receptors tested with Eltrombopag or Eltrombopag+low dose IL-2.

primary human T-cells [3] = test: Eltrombopag and IL-2 on CrGFR sorted (CD110+) primary human T-cells, up to 7 days; assay type: cell-based; details: for expansion of CrGFR cells above that with media alone: second donor (FIG. 12)
Protocol: (§3) FIG. 10—Analysis of Eltrombopag and IL-2 on CrGFR sorted primary human T-cells from Donor 4. Primary human T-cells from donor 4 were transduced with the WT TpoR or variant CrGFR, and enriched for expression by Miltenyi MACS technology selected for and incubated in the presence of IL2 or Eltrombopag. Cells were removed at time points up to 7 days and the number of cells expressing the receptor assessed using PE conjugated anti-CD110 antibodies, DRAQ7 viability dye and a MACSQuant analyser.
as §3, with “11—Analysis” for “10—Analysis”, “5.” for “4.”, “5” for “4”
as §3, with “12—Analysis” for “10—Analysis”, “6.” for “4.”, “6” for “4”
Paramagnetic bead sorts were conducted as per the manufacturers' instructions using either anti-PE microbeads (Miltenyi Biotec or StemCell Technologies), or T-cell isolation beads (17951: StemCell Technologies).
Next Applicants repeated the experiment but sorted the CrGFR+ cells using CD110+ selection by paramagnetic bead selection using the receptors identified from the first round of selections (FIGS. 10, 11 and 12). Applicants observed enhanced survival of T-cells engrafted with the majority of the CrGFR in all three donors. In particular Applicants saw expansion of WT-TpoR, TpOR.CD40, TpOR.IL2rγ and TpoR.LMP1-cyto cells in the second donor (FIG. 12) above that with media alone.

ovarian TIL = test: CrGFR in ovarian TIL mixed with patient matched tumour cells; assay type: cell-based, human; details: all three donors
Protocol: as §2, with “14—Analysis” for “13—Analysis”, “Ovarian TIL.” for “TIL042.”, “×3 ovarian TIL” for “TIL042”, “cells” for “lines”, “either Eltrombopag” for “the addition of IL2, Eltrombopag, IL-2+Eltrombopag,”
Applicants evaluated further the effect of the CrGFR in ovarian TIL. Three ovarian TIL populations were engineered to express either the WT, or TpoR.CD40, TpoR.IL2rγ or TpoR.LMP1-Cyt variant receptors and mixed with patient matched tumour cells in the presence or absence of Eltrombopag. Counts of total and CD110+ cells were made after 4 and 7 days. Applicants observed specific expansion of the CrGFR+ cells in the presence of tumour between days 4 and 7 in donors 2 and 3 with all the receptors except the TpOR.LMP1.cyt.

phospho-STAT5 = test: Induction of pSTAT5 in CrGFR expressing T-cells; assay type: cell-based, human; details: T-cells transduced with wt TpoR, TpoR.CD40 or TpoR.IL2rγ
Protocol: FIG. 15—Induction of pSTAT by chimeric recombinant growth factor receptors. Primary human T-cells were isolated and transduced with the indicated CrGFR. Cells were enriched for CrGFR expression using Miltenyi MACS technology and expanded via polyclonal stimulation. The enriched cells were stimulated for 4 h with either media alone (RPMI), IL2, IL12, Tpo or Eltrombopag (Elt) before methanol fixation and intracellular staining with antibodies towards phospho-STAT5.
Finally, Applicants validated the signalling potential of the novel CrGFR by conducting phospho STAT analysis upon treatment of CrGFR expressing T-cells with media, cytokine or drug. To this end T-cells from 4 donors were transduced with either the wt TpoR, TpoR. CD40 or TpoR.IL2rγ, enriched for CrGFR expression using paramagnetic bead selection protocols and then expanded using polyclonal stimulation. The cells were treated for four hours with media alone (RPMI), IL-2, Tpo or Eltrombopag (Elt) before methanol fixation, permeabilization and analysis using pSTAT specific antibodies. STAT molecules are the key drivers of cell signalling upon cytokine activation of cells, pSTAT5 in particular is key to IL-2 activity.

Molecule	tolerability (circulating platelets)	proportion of viable cells with a distinct population of CD110+ cells (primary human T-cells [1])	non-specific enrichment in IL2 alone ([2]; TIL042 with patient matched tumour cells)	Eltrombopag mediated survival/expansion of TIL ([2]; conclusion)	activity in primary human T-cells (primary human T-cells [3]; conclusion)	expansion of CrGFR cells above that with media alone (primary human T-cells [3])	activity compared with the WT receptor (ovarian TIL)	STAT5 activation of the CrGFR when stimulated with Eltrombopag (phospho-STAT5)
CC1=NN(c2ccc(C)c(C)c2)C(=O)/C1=N\Nc1cccc(-c2cccc(C(=O)O)c2)c1O [Eltrombopag]	without tolerability problems	–	–	–	–	–	–	–
TpoR.CD40: SEQ ID NO: 9; TpoR fused to CD40 cytoplasmic domain (protein, TpoR-CD40; MISC_FEATURE (1)..(491): TpoR Extracellular Domain; MISC_FEATURE (492)..(513): TpoR Transmembrane Domain; MISC_FEATURE (514)..(635): TpoR Cytoplasmic Domain; MISC_FEATURE (636)..(697): CD40 Cytoplasmic Domain) MPSWALFMVTSCLLLAPQNLAQVSSQDVSLLASDSEPLKCFSRTFEDLTCFWDEEEAAPSGTYQLLYAYPREKPRACPLSSQSMPHFGTRYVCQFPDQEEVRLFFPLHLWVKNVFLNQTRTQRVLFVDSVGLPAPPSIIKAMGGSQPGELQISWEEPAPEISDFLRYELRYGPRDPKNSTGPTVIQLIATETCCPALQRPHSASALDQSPCAQPTMPWQDGPKQTSPSREASALTAEGGSCLISGLQPGNSYWLQLRSEPDGISLGGSWGSWSLPVTVDLPGDAVALGLQCFTLDLKNVTCQWQQQDHASSQGFFYHSRARCCPRDRYPIWENCEEEEKTNPGLQTPQFSRCHFKSRNDSIIHILVEVTTAPGTVHSYLGSPFWIHQAVRLPTPNLHWREISSGHLELEWQHPSSWAAQETCYQLRYTGEGHQDWKVLEPPLGARGGTLELRPRSRYRLQLRARLNGPTYQGPWSSWSDPTRVETATETAWISLVTALHLVLGLSAVLGLLLLRWQFPAHYRRLRHALWPSLPDLHRVLGQYLRDTAALSPPKATVSDTCEEVEPSLLEILPKSSERTPLPLCSSQAQMDYRRLQPSCLGTMPLSVCPPMAESGSCCTTHIANHSYLPLSYWQQPKKVAKKPTNKAPHPKQEPQEINFPDDLPGSNTAAPVQETLHGCQPVTQEDGKESRISVQERQ	–	good proportion of viable cells with a distinct population of CD110+ cells	no non-specific enrichment	very specific	optimal activity	expansion	superior to that of the WT receptor	–
TpoR.IL2rγ: SEQ ID NO: 6; TpoR fused to IL2rγ cytoplasmic domain (protein, TpoR.IL2rgamma; MISC_FEATURE (1)..(491): TpoR Extracellular Domain; MISC_FEATURE (492)..(513): TpoR Transmembrane Domain; MISC_FEATURE (514)..(635): TpoR Cytoplasmic Domain; MISC_FEATURE (636)..(721): IL2r-gamma Cytoplasmic Domain) MPSWALFMVTSCLLLAPQNLAQVSSQDVSLLASDSEPLKCFSRTFEDLTCFWDEEEAAPSGTYQLLYAYPREKPRACPLSSQSMPHFGTRYVCQFPDQEEVRLFFPLHLWVKNVFLNQTRTQRVLFVDSVGLPAPPSIIKAMGGSQPGELQISWEEPAPEISDFLRYELRYGPRDPKNSTGPTVIQLIATETCCPALQRPHSASALDQSPCAQPTMPWQDGPKQTSPSREASALTAEGGSCLISGLQPGNSYWLQLRSEPDGISLGGSWGSWSLPVTVDLPGDAVALGLQCFTLDLKNVTCQWQQQDHASSQGFFYHSRARCCPRDRYPIWENCEEEEKTNPGLQTPQFSRCHFKSRNDSIIHILVEVTTAPGTVHSYLGSPFWIHQAVRLPTPNLHWREISSGHLELEWQHPSSWAAQETCYQLRYTGEGHQDWKVLEPPLGARGGTLELRPRSRYRLQLRARLNGPTYQGPWSSWSDPTRVETATETAWISLVTALHLVLGLSAVLGLLLLRWQFPAHYRRLRHALWPSLPDLHRVLGQYLRDTAALSPPKATVSDTCEEVEPSLLEILPKSSERTPLPLCSSQAQMDYRRLQPSCLGTMPLSVCPPMAESGSCCTTHIANHSYLPLSYWQQPERTMPRIPTLKNLEDLVTEYHGNFSAWSGVSKGLAESLQPDYSERLCLVSEIPPKGGALGEGPGASPCNQHSPYWAPPCYTLKPET	–	good proportion of viable cells with a distinct population of CD110+ cells	–	–	–	expansion	superior to that of the WT receptor	clear activation of the correct STAT5 activation pathway
